Experimental data published in the Immune Epitope Database (IEDB).

Legend:
HLA-A*03:01 [1] = experiment: IEDB peptide-MHC binding, purified MHC/competitive/fluorescence; ≥ and ≤ were set here for values at or beyond the usual limits of such assays; settings: source organism: Zaire ebolavirus
HLA-A*11:01 = experiment: as above
HLA-A*68:02 [2] = experiment: IEDB peptide-MHC binding, purified MHC/competitive/fluorescence; filed as Kd, often an IC50 or EC50 that approximates it; ≥ and ≤ were set here for values at or beyond the usual limits of such assays
HLA-B*15:01 [3] = experiment: as above
HLA-A*01:01 = experiment: as above
HLA-B*15:01 [4] = experiment: IEDB peptide-MHC binding, purified MHC/direct/fluorescence; filed as Kd, often an IC50 or EC50 that approximates it; ≥ and ≤ were set here for values at or beyond the usual limits of such assays; settings: source organism: Vibrio parahaemolyticus RIMD 2210633
HLA-B*51:01 [5] = experiment: as above
HLA-B*07:02 = experiment: as above; settings: source organism: Vibrio parahaemolyticus
HLA-B*58:01 = experiment: IEDB peptide-MHC binding, purified MHC/competitive/radioactivity; filed as Kd, often an IC50 or EC50 that approximates it; ≥ and ≤ were set here for values at or beyond the usual limits of such assays
HLA-B*57:01 = experiment: as above
HLA-A*68:02 [6] = experiment: as above; settings: source organism: Dengue virus 2 Jamaica/1409/1983
HLA-B*53:01 = experiment: as above
HLA-C*15:02 = experiment: IEDB peptide-MHC binding, purified MHC/direct/fluorescence; filed as Kd, often an IC50 or EC50 that approximates it; ≥ and ≤ were set here for values at or beyond the usual limits of such assays; settings: source organism: West Nile virus
HLA-A*03:01 [7] = experiment: IEDB peptide-MHC binding, purified MHC/competitive/fluorescence; filed as Kd, often an IC50 or EC50 that approximates it; ≥ and ≤ were set here for values at or beyond the usual limits of such assays; settings: source organism: Salmonella enterica subsp. enterica serovar Typhi
HLA-A*32:01 = experiment: IEDB peptide-MHC binding, purified MHC/competitive/radioactivity; filed as Kd, often an IC50 or EC50 that approximates it; ≥ and ≤ were set here for values at or beyond the usual limits of such assays
HLA-B*08:01 = experiment: as above; settings: source organism: Dengue virus 4 Philippines/H241/1956
HLA-B*51:01 [8] = experiment: as above; settings: source organism: Dengue virus 4 Philippines/H241/1956
HLA-A*26:01 = experiment: as above; settings: source organism: Dengue virus 3 Singapore/8120/1995
HLA-A*24:02 = experiment: as above; settings: source organism: Dengue virus 3 Singapore/8120/1995
HLA-A*23:01 = experiment: as above; settings: source organism: Dengue virus 3 Singapore/8120/1995
HLA-B*35:01 = experiment: as above; settings: source organism: Dengue virus 3 Singapore/8120/1995
HLA-A*02:06 = experiment: as above; settings: source organism: Dengue virus 3 Singapore/8120/1995
[9] = source organism: Zaire ebolavirus
[10] = source organism: Escherichia coli str. K-12 substr. MG1655
[11] = source organism: Dengue virus 4 Philippines/H241/1956
[12] = source organism: Dengue virus 2 Jamaica/1409/1983
[13] = source organism: Dengue virus 1 Brazil/97-11/1997
[14] = source organism: Escherichia coli 536
[15] = source organism: Dengue virus 3 Singapore/8120/1995

In the case of ATQVEQHHR, the IC50 (HLA-A*03:01 [1]) is reported as ≥ 90800 nM and the IC50 (HLA-A*11:01; [9]) is reported as 5220 nM.
With EAIRQIHAQ the Kd (HLA-A*68:02 [2]; source organism: Escherichia coli HS) was 809 nM.
In the case of ELACAVPFY, the Kd (HLA-B*15:01 [3]; [10]) is reported as 226 nM and the Kd (HLA-A*01:01; [10]) is reported as ≥ 20000 nM.
In the case of EPATQTFDM, the Kd (HLA-B*15:01 [4]) is reported as ≥ 20000 nM, the Kd (HLA-B*51:01 [5]; source organism: Vibrio parahaemolyticus) is reported as ≥ 20000 nM and the Kd (HLA-B*07:02) is reported as 122 nM.
In the case of ERSWNTGFDW, the Kd (HLA-B*58:01; [11]) is reported as 683 nM.
For ESSPNPTIEA, the Kd (HLA-B*57:01; [12]) was 2090 nM and the Kd (HLA-A*68:02 [6]) was 52.3 nM.
ETKKNLTRK was tested, and the IC50 (HLA-A*03:01 [1]) was 49600 nM and the IC50 (HLA-A*11:01; [9]) was 14100 nM.
FYMASTWGA was tested, and the Kd (HLA-A*68:02 [2]; source organism: Entamoeba dispar SAW760) was 83.1 nM.
With GASTSQETW the Kd (HLA-B*58:01; [13]) was 2.93 nM, the Kd (HLA-B*57:01; [13]) was 10.2 nM and the Kd (HLA-B*53:01; [13]) was 623 nM.
For GGRAHRMAL, the Kd (HLA-C*15:02) was ≥ 20000 nM and the Kd (HLA-B*51:01 [5]; source organism: West Nile virus) was ≥ 20000 nM.
Sequence GTTEVNGLY has a Kd (HLA-A*01:01; source organism: Salmonella enterica subsp. enterica serovar Typhi) of 15.3 nM and a Kd (HLA-A*03:01 [7]) of 2160 nM.
HTWTEQYKF was tested, and the Kd (HLA-B*57:01; [12]) was 2.37 nM and the Kd (HLA-A*32:01; [12]) was 151 nM.
With ISRNTVKRY the Kd (HLA-B*15:01 [3]; [14]) was 284 nM and the Kd (HLA-A*01:01; [14]) was ≥ 20000 nM.
Work on KTSIGLLCVM yielded a Kd (HLA-B*57:01; source organism: Dengue virus 1 Singapore/S275/1990) of 11.4 nM.
In the case of KTWGKAKIF, the Kd (HLA-B*57:01; [11]) is reported as 36.3 nM and the Kd (HLA-A*32:01; [11]) is reported as 60.3 nM.
With LNTIQFMHE the IC50 (HLA-A*11:01; source organism: Vaccinia virus WR) was ≥ 147000 nM.
For MAMTTVLSI, the Kd (HLA-B*58:01; [11]) was 18.9 nM, the Kd (HLA-B*08:01) was 16.3 nM and the Kd (HLA-B*51:01 [8]) was 36.3 nM. It also gave a Kd (HLA-B*53:01; [11]) of 2.34 nM.
For MIAGVLFTF, the Kd (HLA-B*58:01; [15]) was 20.2 nM, the Kd (HLA-A*26:01) was 1230 nM and the Kd (HLA-A*24:02) was 50.4 nM. For the same sequence, the Kd (HLA-A*23:01) was 26 nM, the Kd (HLA-B*35:01) was 4.73 nM and the Kd (HLA-A*02:06) was 22.5 nM. It also gave a Kd (HLA-A*32:01; [15]) of 1.88 nM.
With PVYRDHSEK the IC50 (HLA-A*03:01 [1]) was 7620 nM and the IC50 (HLA-A*11:01; [9]) was 7120 nM.
